Source: patent publication US11505583B2, “Proteins for the treatment of epithelial barrier function disorders” (Second Genome, Inc., priority 2018, dated 2022)
Changes are numbered by the printed parent chain. Names and notes keep the numbering of the source.

B1: SG-11 (SEQ ID NO:7): Recombinant SG-11 with N-terminal methionine, 233 amino acids, no N-terminal tag (protein)
chain: MLEGEESVVYVGKKGVIASLDVETLDQSYYDETELKSYVDAEVEDYTAEHGKNAVKVESLKVEDGVAKLKMKYKTPEDYTAFNGIELYQGKVVASLAAGYVYDGEFARVEEGKVVGAATKQDIYSEDDLKVAIIRANTDVKVDGEICYVSCQNVKLTGKDSVSIRDGYYLETGSVTASVDVTGQESVGTEQLSGTEQMEMTGEPVNADDTEQTEAAAGDGSFETDVYTFIVYK
B2: SG-11V5: SG-11 variant SEQ ID NO:19 comprising N53S, N83S, C147V, C151S with respect to SEQ ID NO:7 (protein)
chain: B1 chain with N53S, N83S, C147V, C151S

Tested on: C57BL/6 mice given 2.5% DSS in drinking water
Assay: Concurrent (prophylactic) DSS model of inflammatory bowel disease (Example 4, Example 13A)
Assay type: in vivo, mouse
Details: for 4KDa-FITC signal in serum / Colon length: vs DSS+vehicle; for Colon length: FIG. 22A
Protocol: Specifically, the mice in Examples 4 and 5 were treated with dextran sodium sulfate (DSS), a chemical known to induce intestinal epithelial damage and thereby reduce intestinal barrier integrity and function. DSS mice are well-accepted models of colitis. In Example 4, mice were treated with SG-11 protein approximately concurrent with (6 hours prior to) administration of DSS. In Example 5, mice were treated with DSS for 6 days prior to treatment with SG-11 protein.
The graphs presented in Example 4 represent data pooled from 3 independent experiments, each using 10 mice (n=30). The SG-11 protein used in these experiments was the mature protein (no signal peptide) without an N-terminal tag and comprising the amino acid sequence of SEQ ID NO:3. For 2 experiments, the SG-11 protein consisted of SEQ ID NO:5; for the third experiment, the SG-11 protein consisted of SEQ ID NO:7.
Eight-week old C57BL/6 mice were housed 5 animals were cage and given food and water ad libitum for 7 days. Following the 7-day acclimation period, treatments were initiated concurrently with addition of 2.5% DSS to the drinking water. […] The mice were treated with 2.5% dextran sodium sulfate (DSS) in their drinking water for 6 days. Treatments were continued with SG-11 or Gly2-GLP2 twice a day (b.i.d.) in the morning and evening (every 8 and 16 hr) with i.p. injections at 50 nmoles/kg. Fresh 2.5% DSS drinking water was prepared every 2 days.
On day six, mice were fasted for four hours and then orally gavaged with 600 mg/kg 4KDa dextran labeled with fluorescein isothiocyanate (FITC) [4KDa-FITC]. One hour after the 4KDa-FITC gavage mice were euthanized, blood was collected and FITC signal was measured in serum. […] The magnitude of 4KDa-FITC dextran translocation observed for SG-11 was similar to the positive control of Gly2-GLP2. Results are shown in FIG. 3, and are presented as mean±SEM. The graph in FIG. 3 represents data pooled from 3 independent experiments (n=30).
SG-11 was also assessed for its effects on the levels of LPS binding protein (LBP) in the blood of the DSS animal with and without SG-11 administration. LPS binding protein (LBP), which has been linked to clinical disease activity in subjects with inflammatory bowel disease, was also measured by ELISA in the serum of mice tested in the DSS model described in Example 4. […] Results are shown in FIG. 4, and are presented as mean±SEM. The graph in FIG. 4 represents data pooled from 3 independent experiments (n=30).
Body weight was measured daily from mice included in the DSS model described in this Example. Percent change from starting weight on day 0 was determined for each mouse. […] Weight loss in mice treated with SG-11 at day 6 was similar to weight loss observed with Gly2-GLP2. The graph in FIG. 5 represents data pooled from two independent experiments (n=20).
Gross pathology observations were made in mice included in the concurrent DSS model performed in this Example. […] No differences in clinical scores were observed between mice given DSS and treated with either Gly2-GLP2 or SG-11. The scoring system used was: (0)=no gross pathology, (1)=streaks of blood visible in feces, (2)=completely bloody fecal pellets, (3) bloody fecal material visible in cecum, (4) bloody fecal material in cecum and loose stool, (5)=rectal bleeding. The graph in FIG. 6 represents data pooled from 3 independent experiments (n=30).
Colon length was measured in mice included in the DSS model described in Example 7. […] The graphs in FIGS. 8A and 8B represent data pooled from 3 independent experiments (n=30). Data are graphed as mean±SEM and are pooled from three independent experiments (n=30). Statistical analysis was performed by a one-way ANOVA followed by a Fisher's LSD multiple comparisons test.
Briefly, in the first DSS mouse model (Example 13A), mice were treated on day zero with test compound intraperitoneally (i.p.) and 6 hours later DSS treatment was initiated. […]

Molecule	4KDa-FITC signal in serum (Example 13A, 50 nmoles/kg i.p. twice a day, p=0.04, FIG. 18A)	Colon length (Example 13A)	Gross pathology score (0-5) (Example 13, 160 nmoles/kg, dose dependent effect, p<0.002, FIG. 21)	4KDa-FITC signal in serum (Example 13, FIG. 18B, p=0.21)	LBP in serum (ELISA) (Example 13A, 158 nmoles/kg i.p. twice a day, p=0.003, FIG. 19A)	Body weight (Example 13A, 158 nmoles/kg, day 6, FIG. 20A)	Dose dependence of effect on colon length (prophylactic DSS model, 16, 50 and 158 nmoles/kg)
B1	significantly reduced the 4KDa-FITC signal	significant increase in the colon length					
B2		significant increase in the colon length	significant improvement	also reduced the 4KDa-FITC signal, although the difference was not reach statistical significance	significant reduction in LBP production	significant improvement in body weight	no dose-dependent effect on colon length
